Here are results for one molecule from patent US20030021779A1.

The target of this experiment is C-antigen (human). Briefly: cell-fixed ELISA, tumor cell lines. On the technique in general: An ELISA detects its analyte on a solid surface through an enzyme-linked reagent.

B1: H11-scFv (scFv)
scFv: DIVLTQSPGTLSLSPGERATLSCRASQSVSSSYLAWYQQKPGQAPRLLIYGASTRATGMPDRFSGSGSGTDFTLTISRLEPEDFAVYYCQQYGSSPQTPQITFGGGTKVEIKRTVAAPSVSGGGGSGGGGSGGGGSQVQLVESGGGVVQPGRSLRLSCAASGFPFRSFAMHWVRQALGKGLEWVAVISYDGSTKYYADSVKGRFTISRDTSKNTVYLKMNSLRTEDTAVYYCARDQSLLGDYDHYYGLDVWGKGTTVTVSSGSEQKLISEEDLNHHHHH
Molecule B1 displayed a fold greater affinity than the control (BGA scFv) of 8 to 50 fold.
